Reference: US11485769B2, “Peptides and combination of peptides for use in immunotherapy and methods for generating scaffolds for the use against pancreatic cancer and other cancers” (Immatics Biotechnologies GmbH, priority 2015, dated 2022)

Target: HLA-A*02:01 (Homo sapiens, UniProt P04439, D140Y/D185E/D98H/E176V/E277Q/G131W/G231S/I119V/I121R/I166T/I218V/L300P/L318F/N151K/N90K/P208A/P217A/Q86G/Q94H/R138H/R169H/T345S)
Experiment: MHC binding assay (UV-ligand exchange, beta2m ELISA, peptide exchange yield)
Conditions: binding to HLA-A*02:01 ranged by peptide exchange yield, β2m ELISA
Description: Candidate peptides for T cell based therapies according to the present invention were further tested for their MHC binding capacity (affinity). The individual peptide-MHC complexes were produced by UV-ligand exchange, where a UV-sensitive peptide is cleaved upon UV-irradiation, and exchanged with the peptide of interest as analyzed. Only peptide candidates that can effectively bind and stabilize the peptide-receptive MHC molecules prevent dissociation of the MHC complexes. To determine the yield of the exchange reaction, an ELISA was performed based on the detection of the light chain (β2m) of stabilized MHC complexes. The assay was performed as generally described in Rodenko et al. (Rodenko et al., 2006).
96 well MAXISorp plates (NUNC) were coated over night with 2 ug/ml streptavidin in PBS at room temperature, washed 4× and blocked for 1 h at 37° C. in 2% BSA containing blocking buffer. Refolded HLA-A*02:01/MLA-001 monomers served as standards, covering the range of 15-500 ng/ml. Peptide-MHC monomers of the UV-exchange reaction were diluted 100 fold in blocking buffer. Samples were incubated for 1 h at 37° C., washed four times, incubated with 2 ug/ml HRP conjugated anti-μ2m for 1h at 37° C., washed again and detected with TMB solution that is stopped with […]. Absorption was measured at 450 nm. Candidate peptides that show a high exchange yield (preferably higher than 50%, most preferred higher than 75%) are generally preferred for a generation and production of antibodies or fragments thereof, and/or T cell receptors or fragments thereof, as they show sufficient avidity to the MHC molecules and prevent dissociation of the MHC complexes.
MHC class I binding scores. Binding of HLA-class I restricted peptides to HLA-A*02:01 was ranged by peptide exchange yield: ≥10%=+; ≥20%=++; ≥50=+++; >75%=++++

Row | Substance | Peptide exchange (MHC class I binding score)
1 | 102 (ALYPGTDYTV; listed as Homo sapiens) [compound 102] | “+++” (≥50=+++)
2 | 103 (AVAAVLTQV; listed as Homo sapiens) [compound 103] | “+++” (≥50=+++)
3 | 104 (FLQPDLDSL; listed as Homo sapiens) [compound 104] | “+++” (≥50=+++)
4 | 105 (FLSEVFHQA; listed as Homo sapiens) [compound 105] | “+++” (≥50=+++)
5 | 106 (FVWSGTAEA; listed as Homo sapiens) [compound 106] | “+++” (≥50=+++)
6 | 107 (FVYGGPQVQL; listed as Homo sapiens) [compound 107] | “+++” (≥50=+++)
7 | 109 (ILASVILNV; listed as Homo sapiens) [compound 109] | “++++” (>75%=++++)
8 | 110 (ILLTGTPAL; listed as Homo sapiens) [compound 110] | “+++” (≥50=+++)
9 | 111 (LLLAAARLAAA; listed as Homo sapiens) [compound 111] | “+++” (≥50=+++)
10 | 112 (LLSDVRFVL; listed as Homo sapiens) [compound 112] | “+++” (≥50=+++)
11 | 113 (LMMSEDRISL; listed as Homo sapiens) [compound 113] | “+++” (≥50=+++)
12 | 114 (SLFPHNPQFI; listed as Homo sapiens) [compound 114] | “+++” (≥50=+++)
13 | 115 (SLMDPNKFLLL; listed as Homo sapiens) [compound 115] | “+++” (≥50=+++)
14 | 116 (SMMDPNHFL; listed as Homo sapiens) [compound 116] | “++++” (>75%=++++)
15 | 117 (SVDGVIKEV; listed as Homo sapiens) [compound 117] | “+++” (≥50=+++)
16 | 118 (TLWYRPPEL; listed as Homo sapiens) [compound 118] | “+++” (≥50=+++)
17 | 119 (VLGDDPQLMKV; listed as Homo sapiens) [compound 119] | “+++” (≥50=+++)
18 | 121 (YLDEDTIYHL; listed as Homo sapiens) [compound 121] | “++” (≥20%=++)
19 | 122 (MQAPRAALVFA; listed as Homo sapiens) [compound 122] | “++++” (>75%=++++)

Row | Substance | Peptide exchange (MHC class I binding score)
20 | 123 (KISTITPQI; listed as Homo sapiens) [compound 123] | “++” (≥20%=++)
21 | 124 (ALFEESGLIRI; listed as Homo sapiens) [compound 124] | “+++” (≥50=+++)
22 | 125 (ALLGKLDAINV; listed as Homo sapiens) [compound 125] | “+++” (≥50=+++)
23 | 126 (ALLSLDPAAV; listed as Homo sapiens) [compound 126] | “++++” (>75%=++++)
24 | 127 (ALSDLALHFL; listed as Homo sapiens) [compound 127] | “++++” (>75%=++++)
25 | 128 (ALYDVRTILL; listed as Homo sapiens) [compound 128] | “+++” (≥50=+++)
26 | 129 (ALYEKDNTYL; listed as Homo sapiens) [compound 129] | “+++” (≥50=+++)
27 | 130 (FLFGEEPSKL; listed as Homo sapiens) [compound 130] | “+++” (≥50=+++)
28 | 131 (FLIEEQKIVV; listed as Homo sapiens) [compound 131] | “+++” (≥50=+++)
29 | 132 (FLWAGGRASYGV; listed as Homo sapiens) [compound 132] | “+++” (≥50=+++)
30 | 133 (ILDDVSLTHL; listed as Homo sapiens) [compound 133] | “++” (≥20%=++)
31 | 134 (ILLAEGRLVNL; listed as Homo sapiens) [compound 134] | “+++” (≥50=+++)
32 | 135 (KLDDTYIKA; listed as Homo sapiens) [compound 135] | “+++” (≥50=+++)
33 | 136 (KLFPGFEIETV; listed as Homo sapiens) [compound 136] | “++++” (>75%=++++)
34 | 137 (KLGPEGELL; listed as Homo sapiens) [compound 137] | “+++” (≥50=+++)
35 | 138 (NIFPNPEATFV; listed as Homo sapiens) [compound 138] | “+++” (≥50=+++)
36 | 139 (SIDRNPPQL; listed as Homo sapiens) [compound 139] | “+++” (≥50=+++)
37 | 140 (SLLNPPETLNL; listed as Homo sapiens) [compound 140] | “+++” (≥50=+++)
38 | 141 (SLTEQVHSL; listed as Homo sapiens) [compound 141] | “+++” (≥50=+++)

Row | Substance | Peptide exchange (MHC class I binding score)
39 | 142 (SLYGYLRGA; listed as Homo sapiens) [compound 142] | “+++” (≥50=+++)
40 | 144 (TAVALLRLL; listed as Homo sapiens) [compound 144] | “++” (≥20%=++)
41 | 145 (TTFPRPVTV; listed as Homo sapiens) [compound 145] | “+++” (≥50=+++)
42 | 146 (VLISGVVHEI; listed as Homo sapiens) [compound 146] | “+++” (≥50=+++)
43 | 147 (YAFPKAVSV; listed as Homo sapiens) [compound 147] | “++” (≥20%=++)
44 | 148 (YLHNQGIGV; listed as Homo sapiens) [compound 148] | “++” (≥20%=++)
45 | 149 (ILGTEDLIVEV; listed as Homo sapiens) [compound 149] | “+++” (≥50=+++)
46 | 150 (ALFQPHLINV; listed as Homo sapiens) [compound 150] | “++++” (>75%=++++)
47 | 151 (ALLDIIRSL; listed as Homo sapiens) [compound 151] | “++++” (>75%=++++)
48 | 152 (ALLEPEFILKA; listed as Homo sapiens) [compound 152] | “++++” (>75%=++++)
49 | 153 (ALPKEDPTAV; listed as Homo sapiens) [compound 153] | “+++” (≥50=+++)
50 | 154 (KVADLVLML; listed as Homo sapiens) [compound 154] | “+++” (≥50=+++)
51 | 155 (LLLDPDTAVLKL; listed as Homo sapiens) [compound 155] | “+++” (≥50=+++)
52 | 156 (LLLPPPPCPA; listed as Homo sapiens) [compound 156] | “+++” (≥50=+++)
53 | 157 (MLLEIPYMAA; listed as Homo sapiens) [compound 157] | “+++” (≥50=+++)
54 | 158 (SLIEKYFSV; listed as Homo sapiens) [compound 158] | “++++” (>75%=++++)
55 | 159 (SLLDLHTKV; listed as Homo sapiens) [compound 159] | “+++” (≥50=+++)
56 | 160 (VLLPDERTISL; listed as Homo sapiens) [compound 160] | “++++” (>75%=++++)
57 | 161 (YLPDIIKDQKA; listed as Homo sapiens) [compound 161] | “+++” (≥50=+++)
